Reference: publication PMC8476798, “SLURP-1 Controls Growth and Migration of Lung Adenocarcinoma Cells, Forming a Complex With α7-nAChR and PDGFR/EGFR Heterodimer” (Frontiers in Cell and Developmental Biology, 2021)

What was measured:
[1] = target: nicotinic acetylcholine receptor of α7 type (α7-nAChR) (human (endogenous in A549)) (UniProt P36544); details: scale: % of viable cells relative to the control
[2] = target: nicotinic acetylcholine receptor of α7 type (α7-nAChR) (human (endogenous in A549)) (UniProt P36544)
[3] = target: nicotinic acetylcholine receptor of α7 type (α7-nAChR) (human (endogenous in A549)) (UniProt P36544); remark: listed apart in the source
[4] = target: nicotinic acetylcholine receptor of α7 type (α7-nAChR) (human (endogenous in A549)) (UniProt P36544); remark: listed apart in the source
[5] = target: nicotinic acetylcholine receptor of α7 type (α7-nAChR) (human (endogenous in A549), UniProt P36544 23-502); assay: cell-based or functional assay
Chain of nicotinic acetylcholine receptor of α7 type (α7-nAChR) (P36544 23-502): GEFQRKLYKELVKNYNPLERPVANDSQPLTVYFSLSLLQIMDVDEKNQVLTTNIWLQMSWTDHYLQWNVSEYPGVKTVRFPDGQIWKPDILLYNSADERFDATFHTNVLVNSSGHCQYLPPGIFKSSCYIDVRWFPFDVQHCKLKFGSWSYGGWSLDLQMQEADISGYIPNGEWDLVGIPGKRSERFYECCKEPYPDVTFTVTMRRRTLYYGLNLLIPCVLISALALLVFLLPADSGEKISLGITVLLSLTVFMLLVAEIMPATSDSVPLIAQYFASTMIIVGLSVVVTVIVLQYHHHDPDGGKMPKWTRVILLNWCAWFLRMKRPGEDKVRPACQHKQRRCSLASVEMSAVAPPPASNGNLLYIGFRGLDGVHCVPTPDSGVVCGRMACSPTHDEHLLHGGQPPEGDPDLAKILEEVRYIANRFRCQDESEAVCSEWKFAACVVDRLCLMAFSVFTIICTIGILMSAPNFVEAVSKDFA

Chain of nicotinic acetylcholine receptor of α7 type (α7-nAChR) (human (endogenous in A549)) (P36544 23-502): as above

## chimeric protein NTII/SL-1(I)
[1]
  antiproliferative activity in A549 cells, WST-1 test, 48 h with 1 μM protein, % of viable cells relative to the control: 70

## synthetic peptide “loop III” with the sequence of loop III of SLURP-1
[2]
  IC50 of inhibition of ACh-evoked currents at human α7-nAChRs expressed in X. laevis oocytes (two-electrode voltage clamp, 100 μM ACh): > 250000 nM

## synthetic peptide “loop I” mimicking loop I of SLURP-1
[3]
  EC50 of the decrease of A549 cell viability, WST-1 test, 48 h: 1800 nM
[2]
  IC50 of inhibition of ACh-evoked currents at human α7-nAChRs expressed in X. laevis oocytes (two-electrode voltage clamp, 100 μM ACh): 74000 nM
[4]
  EC50 of the inhibition of A549 cell migration, scratch assay (control cells without knock-down): 226 nM

B1: recombinant analogue of human SLURP-1 (rSLURP-1) (natural protein, UniProt P55000 23-103, looked up)
chain: LKCYTCKEPMTSASCRTITRCKPEDTACMTTLVTVEAEYPFNQSPVVTRSCSSSCVATDPDSIGAAHLIFCCFRDLCNSEL
[5]
  EC50 of the decrease of A549 cell viability, WST-1 test, 48 h: 10.1 nM
  IC50 of inhibition of ACh-evoked currents at human α7-nAChRs expressed in X. laevis oocytes (two-electrode voltage clamp, 100 μM ACh): 12000 nM
